# Tested on: T1, promolecule containing protonectin (portion A), PR linker (X2) and PAR-1 exosite recognition sequence (portion Z), Cy3 on an N-terminal lysine
# T1 sequence: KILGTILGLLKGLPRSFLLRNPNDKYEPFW
substance,measurement,value
thrombin,"KM (Michaelis-Menten, digestion followed by reverse phase HPLC)",KM 200 nM
same,"kcat/KM (Michaelis-Menten, digestion followed by reverse phase HPLC)",kcat/KM=8 µM^-1 sec^-1
